Consider three molecules from publication PMC3265435, “More than just a metabolic regulator - elucidation and validation of new targets of PdhR in Escherichia coli”.

In data set [1] the target is T1, PdhR (his-tagged) (Escherichia coli, UniProt P0ACL9 1-254). The experiment in a line: EMSA; 0.1 pmol DNA, 54 pmol PdhR; same binding activity as pdhR site; EMSA as in ref 7; 0.1 pmol of each DNA fragment with 54 pmol PdhR; buffer, salt, pH and temperature not given. To be noted: protein: recombinant; tags: His; chain copies: 2; label: 5'DY682 (strand 1); 5'DY782 (strand 2); blunt. (A gel shift assay detects complexes by their altered migration in electrophoresis.)

Data set [2] deals with T1, PdhR (his-tagged). Briefly: EMSA; 0.1 pmol DNA, 54 pmol PdhR; EMSA as in ref 7; 0.1 pmol of each DNA fragment with 54 pmol PdhR; buffer, salt, pH and temperature not given. To be noted: protein: recombinant, tags: His, chain copies: 2, label: 5'DY682 (strand 1), 5'DY782 (strand 2).

T1 sequence (P0ACL9 whole entry, the tested form may be a part): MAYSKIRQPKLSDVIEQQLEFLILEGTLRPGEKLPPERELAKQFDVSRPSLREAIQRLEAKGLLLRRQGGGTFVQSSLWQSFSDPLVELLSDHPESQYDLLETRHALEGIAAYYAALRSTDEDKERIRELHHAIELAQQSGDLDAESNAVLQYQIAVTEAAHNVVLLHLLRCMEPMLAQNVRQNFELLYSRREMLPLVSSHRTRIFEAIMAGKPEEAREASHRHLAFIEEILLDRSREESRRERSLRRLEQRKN

B1: GlcDop (dsDNA)
DNA 1: CTATCTCTTTAGCTACCGGTCAGACCATTTTTTTTCCAGCTCT
DNA 2: AGAGCTGGAAAAAAAATGGTCTGACCGGTAGCTAAAGAGATAG
As to B1, the binding result with PdhR (his-tagged) [1] is recorded as “binds”.

B2: PdhRop (dsDNA)
DNA 1: GCCGAAGTCAATTGGTCTTACCAATTTCATGTCTGTG
DNA 2: CACAGACATGAAATTGGAAGACCAATTGACTTCGGC
On to B2, for which, in the data set with PdhR (his-tagged) [2] (printed strands not exact complements: S23 lacks one T opposite an A of S22 (37/36 nt; possible misprint)), the binding result is reported as “binds”.

B3: MetBop (dsDNA)
DNA 1: AACGGCTATTTGGGATTTGCTCAATCTATACGCAAAGAAGTTT
DNA 2: AAACTTCTTTGCGTATAGATTGAGCAAATCCCAAATAGCCGTT
For B3, the binding result with PdhR (his-tagged) [2] (blunt) was “no binding”.
